How the values were obtained:
Experiment in all cases: BLI; Forte Bio Octet; biotinylated Mm IgG or Fc captured on streptavidin SAX 2.0 tips, FcγRIII in solution in 3-fold serial dilutions (10 mM to 0.013 mM [sic]), PBST (0.05% Tween-PBS), 300 s association and 300 s dissociation; KD from equilibrium fits, average of two independent experiments; the footnote of Table 1 says SPR
[1] = target: Fc of Mm IgG2 (Macaca mulatta (rhesus macaque))
[2] = target: Fc of Mm IgG3 (Macaca mulatta (rhesus macaque))
[3] = target: Fc of Mm IgG4 (Macaca mulatta (rhesus macaque))
[4] = target: Mm IgG1 (Macaca mulatta (rhesus macaque))
[5] = target: Mm IgG2 (Macaca mulatta (rhesus macaque))
[6] = target: Mm IgG3 (Macaca mulatta (rhesus macaque))
[7] = target: Mm IgG4 (Macaca mulatta (rhesus macaque))
[8] = target: macaque immunoglobulin IgG1 Fc (residues 237-447) (Macaca mulatta (rhesus macaque))

| Kd [1] | Kd [2] | Kd [3] | Kd [4] | Kd [5] | Kd [6] | Kd [7] | Kd [8] | Substance |
| --- | --- | --- | --- | --- | --- | --- | --- | --- |
| 150 nM | 290 nM | 1100 nM | 220 nM | 1500 nM | 1900 nM | 490 nM | 210 nM | Mm FcγRIII(Ile^158), fully glycosylated, Man5 glycans (from UniProt A3RFZ7 21-206) (receptor) |
| 230 nM | 400 nM | 1800 nM | 260 nM | 1800 nM | 1900 nM | 980 nM | 250 nM | Mm FcγRIII(Ile^158), fully glycosylated, complex glycans (from UniProt A3RFZ7 21-206) (receptor) |
| 1500 nM | 160 nM | 1900 nM | 280 nM | 2800 nM | 3000 nM | 1700 nM | 60 nM | Mm FcγRIII(Ile^158), partial glycosylation (Asn^38 and Asn^169 glycans removed), Man5 glycans (receptor) |
| 1600 nM | 230 nM | 2200 nM | 340 nM | 2300 nM | 2800 nM | 2300 nM | 120 nM | Mm FcγRIII(Ile^158), partial glycosylation (Asn^38 and Asn^169 glycans removed), complex glycans (receptor) |
| 80 nM | 240 nM | 530 nM | 280 nM | 1800 nM | 2300 nM | 300 nM | 300 nM | Mm FcγRIII(Val^158), fully glycosylated, Man5 glycans (receptor) |
| 90 nM | 460 nM | 630 nM | 410 nM | 2100 nM | 3200 nM | 570 nM | 360 nM | Mm FcγRIII(Val^158), fully glycosylated, complex glycans (receptor) |
| 610 nM | 280 nM | 850 nM | 290 nM | 2200 nM | 4800 nM | 2200 nM | 10 nM | Mm FcγRIII(Val^158), partial glycosylation (Asn^38 and Asn^169 glycans removed), Man5 glycans (receptor) |
| 1200 nM | 250 nM | 1000 nM | 460 nM | 2600 nM | 4200 nM | 3000 nM | 30 nM | Mm FcγRIII(Val^158), partial glycosylation (Asn^38 and Asn^169 glycans removed), complex glycans (receptor) |

Reference: article PMC9484259
